Patent US20200377587A1 (NANTBIO, published 2020)
Where a chain is given by its changes, count along the chain named. Values joined by “and” are separate entries in the source; they are usually repeats but may differ in a detail not shown here. Equal values may be shown once.

T1: IL-8 (UniProt P10145 28-99, limits assumed)
T1 construct: also called Interleukin-8; immobilized IL-8
T1 sequence (looked up): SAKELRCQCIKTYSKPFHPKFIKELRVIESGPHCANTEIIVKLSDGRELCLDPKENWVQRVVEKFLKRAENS

B1: recombinant antibody (IgG1) 43-2 (antibody, V domains shown)
VH: EVQLVESGGGLVQPGGSLRLSCAASGFTFSSYAMHWVRQAPGKGLEWVSAISGSGGKTYYADSVKGRFTISRDNSKNTLYLQMNSLRAEDTAVYYCARDREAPFYTVYVTGFDVWGQGTLVTVSS
VL: DIQMTQSPSSLSASVGDRVTITCQASQDISNYLNWYQQKPGKAPKLLIYDASNLETGVPSRFSGSGSGTDFTFTISSLQPEDIATYYCQQDADTPLTFGQGTKVEIK
notes: IgG1 ('corresponding humanized IgG1'); also called 43-2 IgG1; Clone 43-2
B2: scFv 49-22 (scFv, V domains shown)
VH: EVQLVESGGGLVQPGGSLRLSCAASGFTFTSYAMHWVRQAPGKGLEWVSAISGSGGSTYYADSVKGRFTISRDNSKNTLYLQMNSLRAEDTAVYYCARDLDMFVPFWPAFDVWGQGTLVTVSS
VL: B1 VL with D91A, A92S
notes: also called Clone 49-22
B3: recombinant antibody (IgG1) 49-31 (antibody, V domains shown)
VH: EVQLVESGGGLVQPGGSLRLSCAASGFTFSSYYMHWVRQAPGKGLEWVSAISGGGSSTYYADSVKGRFTISRDNSKNTLYLQMNSLRAEDTAVYYCARDLRIFEGRDAGFDVWGQGTLVTVS
VL: B1 VL with A92D, T94V, L96W
notes: IgG1 ('corresponding humanized IgG1'); also called 49-31 IgG1; Clone 49-31
B4: scFv 49-34 (scFv, V domains shown)
VH: EVQLVESGGGLVQPGGSLRLSCAASGFTLGSYAMHWVRQAPGKGLEWVSAISGSGGSTYYADSVKGRFTISRDNSKNTLYLQMNSLRAEDTAVYYCARDRDTVSIEVGFDVWGQGTLVTVSS
VL: B1 VL with A92S, D93A, T94F
notes: also called Clone 49-34
B5: scFv 43-2 (scFv, V domains shown)
VH: B1 VH
VL: B1 VL
notes: also called Clone 43-2
B6: scFv 43-12b (scFv, V domains shown)
VH: EVQLVESGGGLVQPGGSLRLSCAASGFTFSSYLMHWVRQAPGKGLEWVSAISGSGGITYYADSVKGRFTISRDNSKNTLYLQMNSLRAEDTAVYYCARDREGWFWHSYGFDVWGQGTLVTVSS
VL: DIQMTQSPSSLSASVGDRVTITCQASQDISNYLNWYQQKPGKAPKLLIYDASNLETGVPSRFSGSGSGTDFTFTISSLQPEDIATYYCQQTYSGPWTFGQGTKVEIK
notes: Derived from 43-12 by random mutagenesis of the CDRs and mRNA display
B7: recombinant antibody (IgG1) 43-12 (antibody, V domains shown)
VH: B6 VH with I57S
VL: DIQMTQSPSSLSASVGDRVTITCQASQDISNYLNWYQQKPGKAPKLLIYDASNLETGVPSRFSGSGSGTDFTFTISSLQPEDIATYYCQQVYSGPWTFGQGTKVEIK
notes: IgG1 ('corresponding humanized IgG1'); also called 43-12 IgG1; Clone 43-12
B8: scFv 49-7 (scFv, V domains shown)
VH: EVQLVESGGGLVQPGGSLRLSCAASGFTFSSYAMHWVRQAPGKGLEWVSAISNSGASTYYADSVKGRFTISRDNSKNTLYLQMNSLRAENTAVYYCARDLMRWWIDGFDVWGQGTLVTVSS
VL: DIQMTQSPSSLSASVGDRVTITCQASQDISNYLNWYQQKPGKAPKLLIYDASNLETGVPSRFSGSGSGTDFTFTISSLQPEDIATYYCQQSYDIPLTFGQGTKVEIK
notes: also called Clone 49-7
B9: scFv 49-3 (scFv, V domains shown)
VH: EVQLVESGGGLVQPGGSLRLSCAASGFTFSSYAMTWVRQAPGKGLEWVSVISGSGGSTRYADSVKGRFTISRDNSKNTLYLQMNSLRAEDTAVYYCARDRKFPYVQFFRNGFDVWGQGTLVTVSS
VL: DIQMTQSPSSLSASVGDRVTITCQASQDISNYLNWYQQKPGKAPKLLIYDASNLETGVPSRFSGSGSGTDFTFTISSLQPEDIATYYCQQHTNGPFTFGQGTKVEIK
notes: also called Clone 49-3
B10: IgG1 49-3 (antibody, V domains shown)
VH: B9 VH
VL: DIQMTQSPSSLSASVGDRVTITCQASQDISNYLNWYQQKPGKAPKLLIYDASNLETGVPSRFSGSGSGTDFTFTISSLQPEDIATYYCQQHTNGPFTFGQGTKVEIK
notes: also called 49-3 IgG1; Clone 49-3
B11: scFv 49-18 (scFv, V domains shown)
VH: EVQLVESGGGLVQPGGSLRLSCAASGFTFSSYAMNWVRQAPGKGLEWVSAISWSGGNTYYADSVKGRFTISRDNSKNTLYLQMNSLRAEDTAVYYCARDLYAGYWGFDVWGQGTLVTVSS
VL: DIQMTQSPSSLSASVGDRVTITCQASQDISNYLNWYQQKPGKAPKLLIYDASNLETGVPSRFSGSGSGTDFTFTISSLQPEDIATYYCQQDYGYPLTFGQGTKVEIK
notes: also called Clone 49-18
B12: scFv 49-32 (scFv, V domains shown)
VH: EVQLVESGGGLVQPGGSLRLSCAASGFTFSSYAMHWVRQAPGKGLEWVSAIYGNGGSTYYADSVKGRFTISRDNSKNTLYLQMNSLRAEDTAVYYCARDLYTIEPREAFDVWGQGTLVTVSS
VL: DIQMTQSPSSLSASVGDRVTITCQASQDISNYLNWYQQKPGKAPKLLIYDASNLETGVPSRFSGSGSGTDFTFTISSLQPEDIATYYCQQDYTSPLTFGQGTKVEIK
notes: also called Clone 49-32
B13: IgG1 49-32 (antibody, V domains shown)
VH: B12 VH
VL: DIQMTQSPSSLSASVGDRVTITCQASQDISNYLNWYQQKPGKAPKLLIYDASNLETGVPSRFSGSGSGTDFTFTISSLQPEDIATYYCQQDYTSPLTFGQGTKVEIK
notes: also called 49-32 IgG1; Clone 49-32

Experiments:
IL-8 [1] = target: T1, IL-8; test: SPR, IgG1, 25 C, pH 7.4, preliminary KD
Excerpt: (§1) The inventors contemplate that the binding affinities of the scFv, recombinant antibody or fragment thereof, to IL-8 may be different due to the structural differences even if the scFv, recombinant antibody or fragment thereof, are generated using the same amino acid sequences of VH segment and/or VL segments. For example, Table 2 provides different affinities (measured in KD value) of scFv and recombinant antibody (IgG1) of several clones. Clone 49-31 is a scFv or a recombinant antibody (IgG1) generated using amino acid sequences encoding VH segment (SEQ ID No. 1) and VL segment (SEQ ID No. 16), Clone 43-2 is a scFv or a recombinant antibody (IgG1) generated using amino acid sequences encoding VH segment (SEQ ID No. 8) and VL segment (SEQ ID No. 23), and Clone 43-12 is a scFv or a recombinant antibody (IgG1) generated using amino acid sequences encoding VH segment (SEQ ID No.10) and VL segment (SEQ ID No. 25). Preliminary KD values are determined by surface plasmon resonance measurement, and highest and lowest values are shown to estimate the range of the affinities to IL-8.

IL-8 [2] = target: T1, IL-8; test: SPR, IgG1, 37 C, pH 7.4, preliminary KD, lowest and highest value
Excerpt: as §1

IL-8 [3] = target: T1, IL-8; test: SPR, immobilized IL-8, IgG, 37 C
Description: (§2) Here, scFv and corresponding humanized IgG₁ were prepared using the sequences as indicated, and KD was determined using SPR with immobilized IL-8 as […] on the chip surface. All values are expressed as nanoM values at temperatures as indicated.

IL-8 [4] = target: T1, IL-8; test: SPR, immobilized IL-8, IgG1, 25 C
Description: as §2

IL-8 [5] = target: T1, IL-8; test: SPR, immobilized IL-8, scFv, 25 C
Description: as §2

IL-8 [6] = target: T1, IL-8; test: SPR, IgG1, 37 C, pH 7.4, preliminary KD; IgG1, 37 C, pH 7.4
Excerpt: as §1

IL-8 [7] = target: T1, IL-8; test: SPR, IgG1, 25 C, pH 7.4, preliminary KD, lowest and highest value; lowest value of the range; IgG1, 25 C, pH 7.4
Excerpt: as §1

IL-8 [8] = target: T1, IL-8; test: SPR, IgG1, 25 C, pH 6.0, preliminary KD, lowest and highest value
Excerpt: as §1

IL-8 [9] = target: T1, IL-8; test: SPR, scFv, preliminary KD
Excerpt: as §1

IL-8 [10] = target: T1, IL-8; test: SPR, upper panel; no pH label is printed on this sheet (the upper panel of Fig.4A is pH7.4; the text names pH 7.4 and pH 6.0)
Description: (§3) In yet another set of experiments, the inventors used affinity maturation (here: random mutagenesis of CDR regions in VH and VL chains and mRNA display selection) of one previously identified IL-8 binder (here: 43-12, sequence in Table 1), and SPR analysis was performed on selected mutant forms using two different pH conditions, pH 7.4 and pH 6.0.

IL-8 [11] = target: T1, IL-8; test: SPR, lower panel; no pH label is printed on this sheet (the lower panel of Fig.4A is pH6.0; the text names pH 7.4 and pH 6.0)
Description: as §3

IL-8 [12] = target: T1, IL-8; test: SPR, IgG1, 25 C, pH 7.4, preliminary KD, lowest and highest value
Excerpt: as §1

IL-8 [13] = target: T1, IL-8; test: SPR, IgG1, 37 C, pH 7.4, preliminary KD
Excerpt: as §1

Binder | Kd (IL-8 [3]) [pM] | Kd (IL-8 [4]) [pM] | Kd (IL-8 [5]) [pM] | other results
B1 | 720 to 890 | 790 |  | Kd (IL-8 [1]): 790 pM; Kd (IL-8 [2]): 720 pM and 890 pM
B2 |  |  | 110 to 114 | 
B3 | 120 | 99 to 250 |  | Kd (IL-8 [6]): 117 pM; Kd (IL-8 [7]): 9 to 250 pM; Kd (IL-8 [8]): 210 to 220 pM
B4 |  |  | 440 to 620 | 
B5 |  |  | 1410 | Kd (IL-8 [9]): 1410 pM
B6 |  |  |  | Kd (IL-8 [10]): 2000 pM; koff (IL-8 [10]): 0.0002 s⁻¹; kon (IL-8 [10]): 100000 M⁻¹ s⁻¹; Kd (IL-8 [11]): 2300 pM; koff (IL-8 [11]): 0.00076 s⁻¹; kon (IL-8 [11]): 330000 M⁻¹ s⁻¹
B7 | 310 | 430 to 780 |  | Kd (IL-8 [12]): 430 to 780 pM; Kd (IL-8 [13]): 310 pM; Kd (IL-8 [8]): 3460 to 6700 pM
B8 |  |  | 87 to 170 | 
B9 |  |  | 1260 | 
B10 | 9190 | 2140 |  | 
B11 |  |  | 410 to 890 | 
B12 |  |  | 210 to 240 | 
B13 | 330 to 360 | 770 to 870 |  | 
